Source: article PMC5225419

Target: full length (FL) human recombinant TPPP/p25 (Tubulin Polymerization Promoting Protein) (human) (UniProt O94811)
Experiment: SDS-PAGE without reducing agent; 5 ug protein from the 200 uM stock solution loaded directly onto the gel in the absence of DTE; disulphide-stabilized dimers

stoichiometry N: 2
Substance: full length (FL) human recombinant TPPP/p25 (Tubulin Polymerization Promoting Protein) (from UniProt O94811 1-219) (natural protein; other documents disagree on this pair)
